{
  "source": "patent US20090099029",
  "proteins": {"B1": {"name": "AKT3 (protein)", "chain": "MSDVTIVKEGWVQKRGEYIKNWRPRYFLLKTDGSFIGYKEKPQDVDLPYPLNNFSVAKCQLMKTERPKPNTFIIRCLQWTTVIERTFHVDTPEEREEWTEAIQAVADRLQRQEEERMNCSPTSQIDNIGEEEMDASTTHHKRKTMNDFDYLKLLGKGTFGKVILVREKASGKYYAMKILKKEVIIAKDEVAHTLTESRVLKNTRHPFLTSLKYSFQTKDRLCFVMEYVNGGELFFHLSRERVFSEDRTRFYGAEIVSALDYLHSGKIVYRDLKLENLMLDKDGHIKITDFGLCKEGITDAATMKTFCGTPEYLAPEVLEDNDYGRAVDWWGLGVVMYEMMCGRLPFYNQDHEKLFELILMEDIKFPRTLSSDAKSLLSGLLIKDPNKRLGGGPDDAKEIMRHSFFSGVNWQDVYDKKLVPPFKPQVTSETDTRYFDEEFTAQTITITPPEKYDEDGMDCMDNERRPHFPQFSYSASGRE"}, "B2": {"name": "CSNK1E(CK1eps) (protein)", "chain": "MELRVGNKYRLGRKIGSGSFGDIYLGANIASGEEVAIKLECVKTKHPQLHIESKFYKMMQGGVGIPSIKWCGAEGDYNVMVMELLGPSLEDLFNFCSRKFSLKTVLLLADQMISRIEYIHSKNFIHRDVKPDNFLMGLGKKGNLVYIIDFGLAKKYRDARTHQHIPYRENKNLTGTARYASINTHLGIEQSRRDDLESLGYVLMYFNLGSLPWQGLKAATKRQKYERISEKKMSTPIEVLCKGYPSEFSTYLNFCRSLRFDDKPDYSYLRQLFRNLFHRQGFSYDYVFDWNMLKFGAARNPEDVDRERREHEREERMGQLRGSATRALPPGPPTGATANRLRSAAEPVASTPASRIQPAGNTSPRAISRVDRERKVSMRLHRGAPANVSSSDLTGRQEVSRIPASQTSVPFDHLGK"}, "B3": {"name": "STK6(AuroraA) (protein)", "chain": "MDRSKENCISGPVKATAPVGGPKRVLVTQQFPCQNPLPVNSGQAQRVLCPSNSSQRIPLQAQKLVSSHKPVQNQKQKQLQATSVPHPVSRPLNNTQKSKQPLPSAPENNPEEELASKQKNEESKKRQWALEDFEIGRPLGKGKFGNVYLAREKQSKFILALKVLFKAQLEKAGVEHQLRREVEIQSHLRHPNILRLYGYFHDATRVYLILEYAPLGTVYRELQKLSKFDEQRTATYITELANALSYCHSKRVIHRDIKPENLLLGSAGELKIADFGWSVHAPSSRRTTLCGTLDYLPPEMIEGRMHDEKVDLWSLGVLCYEFLVGKPPFEANTYQETYKRISRVEFTFPDFVTEGARDLISRLLKHNPSQRPMLREVLEHPWITANSSKPSNCQNKESASKQS"}, "B4": {"name": "EPHA2 (protein)", "chain": "HRRRKNQRARQSPEDVYFSKSEQLKPLKTYVDPHTYEDPNQAVLKFTTEIHPSCVTRQKVIGAGEFGEVYKGMLKTSSGKKEVPVAIKTLKAGYTEKQRVDFLGEAGIMGQFSHHNIIRLEGVISKYKPMMIITEYMENGALDKFLREKDGEFSVLQLVGMLRGIAAGMKYLANMNYVHRDLAARNILVNSNLVCKVSDFGLSRVLEDDPEATYTTSGGKIPIRWTAPEAISYRKFTSASDVWSFGIVMWEVMTYGERPYWELSNHEVMKAINDGFRLPTPMDCPSAIYQLMMQCWQQERARRPKFADIVSILDKLIRAPDSLKTLADFDPRVSIRLPSTSGSEGVPFRTVSEWLESIKMQQYTEHFMAAGYTAIEKVVQMTNDDIKRIGVRLPGHQKRIAYSLLGLKDQVNTVGIPI"}, "B5": {"name": "DAPK2 (protein)", "chain": "MFQASMRSPNMEPFKQQKVEDFYDIGEELGSGQFAIVKKCREKSTGLEYAAKFIKKRQSRASRRGVSREEIEREVSILRQVLHHNVITLHDVYENRTDVVLILELVSGGELFDFLAQKESLSEEEATSFIKQILDGVNYLHTKKIAHFDLKPENIMLLDKNIPIPHIKLIDFGLAHEIEDGVEFKNIFGTPEFVAPEIVNYEPLGLEADMWSIGVITYILLSGASPFLGDTKQETLANITAVSYDFDEEFFSQTSELAKDFIRKLLVKETRKRLTIQEALRHPWITPVDNQQAMVRRESVVNLENFRKQYVRRRWKLSFSIVSLCNHLTRSLMKKVHLRPDEDLRNCESDTEEDIARRKALHPRRRSSTS"}, "B6": {"name": "AKT2 (protein)", "chain": "MNEVSVIKEGWLHKRGEYIKTWRPRYFLLKSDGSFIGYKERPEAPDQTLPPLNNFSVAECQLMKTERPRPNTFVIRCLQWTTVIERTFHVDSPDEREEWMRAIQMVANSLKQRAPGEDPMDYKCGSPSDSSTTEEMEVAVSKARAKVTMNDFDYLKLLGKGTFGKVILVREKATGRYYAMKILRKEVIIAKDEVAHTVTESRVLQNTRHPFLTALKYAFQTHDRLCFVMEYANGGELFFHLSRERVFTEERARFYGAEIVSALEYLHSRDVVYRDIKLENLMLDKDGHIKITDFGLCKEGISDGATMKTFCGTPEYLAPEVLEDNDYGRAVDWWGLGVVMYEMMCGRLPFYNQDHERLFELILMEEIRFPRTLSPEAKSLLAGLLKKDPKQRLGGGPSDAKEVMEHRFFLSINWQDVVQKKLLPPFKPQVTSEVDTRYFDDEFTAQSITITPPDRYDSLGLLELDQRTHFPQFSYSASIRE"}, "B7": {"name": "CSNK2A2 (protein)", "chain": "MPGPAAGSRARVYAEVNSLRSREYWDYEAHVPSWGNQDDYQLVRKLGRGKYSEVFEAINITNNERVVVKILKPVKKKKIKREVKILENLRGGTNIIKLIDTVKDPVSKTPALVFEYINNTDFKQLYQILTDFDIRFYMYELLKALDYCHSKGIMHRDVKPHNVMIDHQQKKLRLIDWGLAEFYHPAQEYNVRVASRYFKGPELLVDYQMYDYSLDMWSLGCMLASMIFRREPFFHGQDNYDQLVRIAKVLGTEELYGYLKKYHIDLDPHFNDILGQHSRKRWENFIHSENRHLVSPEALDLLDKLLRYDHQQRLTAKEAMEHPYFYPVVKEQSQPCADNAVLSSGLTAAR"}, "B8": {"name": "CSNK2A1(CK2alpha1) (protein)", "chain": "MSGPVPSRARVYTDVNTHRPREYWDYESHVVEWGNQDDYQLVRKLGRGKYSEVFEAINITNNEKVVVKILKPVKKKKIKREIKILENLRGGPNIITLADIVKDPVSRTPALVFEHVNNTDFKQLYQTLTDYDIRFYMYEILKALDYCHSMGIMHRDVKPHNVMIDHEHRKLRLIDWGLAEFYHPGQEYNVRVASRYFKGPELLVDYQMYDYSLDMWSLGCMLASMIFRKEPFFHGHDNYDQLVRIAKVLGTEDLYDYIDKYNIELDPRFNDILGRHSRKRWERFVHSENQHLVSPEALDFLDKLLRYDHQSRLTAREAMEHPYFYTVVKDQARMGSSSMPGGSTPVSSANMMSGISSVPTPSPLGPLAGSPVIAAANPLGMPVPAAAGAQQ"}, "B9": {"name": "CSNK1D(CK1delta) (protein)", "chain": "MELRVGNRYRLGRKIGSGSFGDIYLGTDIAAGEEVAIKLECVKTKHPQLHIESKIYKMMQGGVGIPTIRWCGAEGDYNVMVMELLGPSLEDLFNFCSRKFSLKTVLLLADQMISRIEYIHSKNFIHRDVKPDNFLMGLGKKGNLVYIIDFGLAKKYRDARTHQHIPYRENKNLTGTARYASINTHLGIEQSRRDDLESLGYVLMYFNLGSLPWQGLKAATKRQKYERISEKKMSTPIEVLCKGYPSEFATYLNFCRSLRFDDKPDYSYLRQLFRNLFHRQGFSYDYVFDWNMLKFGASRAADDAERERRDREERLRHSRNPATRGLPSTASGRLRGTQEVAPPTPLTPTSHTANTSPRPVSGMERERKVSMRLHRGAPVNISSSDLTGRQDTSRMSTSQNSIPFEHHGK"}, "B10": {"name": "CHEK1 (protein)", "chain": "MAVPFVEDWDLVQTLGEGAYGEVQLAVNRVTEEAVAVKIVDMKRAVDCPENIKKEICINKMLNHENVVKFYGHRREGNIQYLFLEYCSGGELFDRIEPDIGMPEPDAQRFFHQLMAGVVYLHGIGITHRDIKPENLLLDERDNLKISDFGLATVFRYNNRERLLNKMCGTLPYVAPELLKRREFHAEPVDVWSCGIVLTAMLAGELPWDQPSDSCQEYSDWKEKKTYLNPWKKIDSAPLALLHKILVENPSARITIPDIKKDRWYNKPLKKGAKRPRVTSGGVSESPSGFSKHIQSNLDFSPVNSASSEENVKYSSSQPEPRTGLSLWDTSPSYIDKLVQGISFSQPTCPDHMLLNSQLLGTPGSSQNPWQRLVKRMTRFFTKLDADKSYQCLKETCEKLGYQWKKSCMNQVTISTTDRRNNKLIFKVNLLEMDDKILVDFRLSKGDGLEFKRHFLKIKGKLIDIVSSQKIWLPAT"}, "B11": {"name": "DAPK3(ZIPK) (protein)", "chain": "MSTFRQEDVEDHYEMGEELGSGQFAIVRKCRQKGTGKEYAAKFIKKRRLSSSRRGVSREEIEREVNILREIRHPNIITLHDIFENKTDVVLILELVSGGELFDFLAEKESLTEDEATQFLKQILDGVHYLHSKRIAHFDLKPENIMLLDKNVPNPRIKLIDFGIAHKIEAGNEFKNIFGTPEFVAPEIVNYEPLGLEADMWSIGVITYILLSGASPFLGETKQETLTNISAVNYDFDEEYFSNTSELAKDFIRRLLVKDPKRRMTIAQSLEHSWIKAIRRRNVRGEDSGRKPERRRLKTTRLKEYTIKSHSSLPPNNSYADFERFSKVLEEAAAAEEGLRELQRSRRLCHEDVEALAAIYEEKEAWYREESDSLGQDLRRLRQELLKTEALKRQAQEEAKGALLGTSGLKRRFSRLENRYEALAKQVASEMRFVQDLVRALEQEKLQGVECGLR"}, "B12": {"name": "EPHA3 (protein)", "chain": "RFCGYKSKHGADEKRLHFGNGHLKLPGLRTYVDPHTYEDPTQAVHEFAKELDATNISIDKVVGAGEFGEVCSGRLKLPSKKEISVAIKTLKVGYTEKQRRDFLGEASIMGQFDHPNIIRLEGVVTKSKPVMIVTEYMENGSLDSFLRKHDAQFTVIQLVGMLRGIASGMKYLSDMGYVHRDLAARNILINSNLVCKVSDFGLSRVLEDDPEAAYTTRGGKIPIRWTSPEAIAYRKFTSASDVWSYGIVLWEVMSYGERPYWEMSNQDVIKAVDEGYRLPPPMDCPAALYQLMLDCWQKDRNNRPKFEQIVSILDKLIRNPGSLKIITSAAARPSNLLLDQSNVDITTFRTTGDWLNGVWTAHCKEIFTGVEYSSCDTIAKISTDDMKKVGVTVVGPQKKIISSIKALETQSKNGPVPV"}},
  "data": [
    {"biological_target": "T1, Bovine, dephosphorylated, Myelin Basic Protein (MBP), P02687", "T1 chain": "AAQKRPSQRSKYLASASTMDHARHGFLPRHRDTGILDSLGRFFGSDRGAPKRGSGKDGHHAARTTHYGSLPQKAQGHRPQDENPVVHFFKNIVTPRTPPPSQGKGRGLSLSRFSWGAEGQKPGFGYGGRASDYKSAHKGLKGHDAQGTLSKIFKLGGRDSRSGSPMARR", "values": [
      {"protein": "B1", "MBP Kinase Activity": "Strong"},
      {"protein": "B2", "MBP Kinase Activity": "Negative"},
      {"protein": "B3", "MBP Kinase Activity": "Weak"},
      {"protein": "B4", "MBP Kinase Activity": "Weak"},
      {"protein": "B5", "MBP Kinase Activity": "Negative"},
      {"protein": "B6", "MBP Kinase Activity": "Strong"},
      {"protein": "B7", "MBP Kinase Activity": "Negative"},
      {"protein": "B8", "MBP Kinase Activity": "Strong"},
      {"protein": "B9", "MBP Kinase Activity": "Negative"},
      {"protein": "B10", "MBP Kinase Activity": "Strong"},
      {"protein": "B11", "MBP Kinase Activity": "Negative"},
      {"protein": "B12", "MBP Kinase Activity": "Strong"}
    ]}
  ]
}
